# Laboratory results reported in publication PMC5787919, “A feedback regulatory model for RifQ-mediated repression of rifamycin export in Amycolatopsis mediterranei” (Microbial Cell Factories, 2018).
# B1: RifQ, TetR-family transcriptional regulator of Amycolatopsis mediterranei S699 (natural protein, UniProt O52558 1-242, looked up)
# chain: MGKRASQPRESVWLSPRPARKHRAGESELDREKIVATAVRVLDAEGDAKFSMRLLAEELNVTPMSVYWYVANKDDLLELALDAVAGEIELPSLDDGNDWREDLRALARAWRRTMVAHPWAIRCYGEYLNIGPSSLRFTECAQAVMACSPLPLKDRSAALNVVFQYVYGFTATESRWLEHLAETGRTAEEFAAEVTGSMAAMSSTLEQGGLLERDGDQSMEQLRDRDFDRGLNWLFTGMVAGG
# notes: RifQ, TetR-family regulator encoded in the rifamycin biosynthetic (rif) cluster of Amycolatopsis mediterranei S699; Cloning between NdeI and XhoI of pET22b would usually give a C-terminal His6 tag (surmised); also called His-tagged RifQ; recombinant RifQ; source: E. coli BL21(DE3), pET22b-RifQ, purified (Ni-NTA gravity column)
# Target: the molecule itself
# Experiment: SEC; gel filtration on Superdex 75, calibrated with the Low Molecular Weight kit (aprotinin 6.5 KD, ribonuclease A 14 KD, ovalbumin 44 KD; Blue Dextran 2000 for the void); molecular weight calculated from the retention time
protein,measurement,value
B1,stoichiometry N,2
